Experiments:
human IL-13 [1] = molecular target: T1, human IL-13 (human, UniProt P35225 35-146); assay: SPR 37°C, antibody captured by anti-human IgG, human IL-13 1.56-50 nM
T1 construct: mature; The Pfizer protein carries an N-terminal FLAG tag; bioassays used R&D Systems IL-13; also called hu IL-13; rHu IL-13
Method: The affinity values (KD) were determined using Surface Plasmon Resonance (SPR) for 10 lead variants identified from bioassay screening.

human IL-13 [2] = molecular target: T1, human IL-13; assay: cell-based or functional assay
cynomolgus monkey IL-13 [3] = molecular target: T2, cynomolgus monkey IL-13 (cynomolgus monkey, UniProt Q0PW92 19-132); assay: ELISA: competition with biotinylated human IL-13 for binding to IL13-0001
T2 construct: also called cy IL-13; cyno IL-13; not shown: N-terminal FLAG tag of the Pfizer-made protein

dog IL-13 = molecular target: T3, dog IL-13 (dog, UniProt Q9N0W9 19-131, limits assumed); assay: as above
T3 sequence (looked up): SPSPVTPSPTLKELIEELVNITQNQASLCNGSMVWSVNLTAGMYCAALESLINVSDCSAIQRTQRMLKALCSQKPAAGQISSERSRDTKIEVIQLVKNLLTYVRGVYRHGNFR
From the text: (§1) Recombinant human, mouse, rat, and dog IL 13 were purchased from R&D Systems (Minneapolis, MN). Recombinant sheep and rabbit IL-13 were produced by Pfizer Global Biotechnologies (PGBT, Cambridge, MA). Recombinant cynomolgus monkey IL 13 was purchased from Sino Biological (Beijing, China).

mouse IL-13 [4] = molecular target: T4, mouse IL-13 (mouse, UniProt P20109 26-131, limits assumed); assay: as above
T4 construct: also called mu IL-13
T4 sequence (looked up): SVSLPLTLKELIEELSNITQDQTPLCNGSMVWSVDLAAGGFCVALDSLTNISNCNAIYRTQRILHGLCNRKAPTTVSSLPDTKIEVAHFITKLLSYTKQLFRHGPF
From the text: as §1

human IL-13 [5] = molecular target: T1, human IL-13; assay: cell-based or functional assay; remark: listed apart in the source
mouse IL-13 [6] = molecular target: T4, mouse IL-13; assay: SPR (Biacore 8K+), trispecific captured on anti-human Fc on a CM5 chip, 200 nM IL-13 injected for 60 s
Method: (§2) All experiments were performed using a Biacore 8K+ instrument (GE HealthCare, Marlborough, MA). Anti-human Fc (Jackson Immunoresearch) or anti-mouse Fc (GE HealthCare, Marlborough, MA) was immobilized on a CM5 sensor chip using a standard amine coupling protocol provided by GE HealthCare. […] The association and dissociation phases were 60 seconds and 300 seconds, respectively. At the end of the dissociation phase, the surface containing anti-human or anti-mouse Fc was regenerated using one 30 second pulse of 3M MgCl₂ followed by one 30 second pulse of 10 mM glycine pH 1.7.

rat IL-13 = molecular target: T5, rat IL-13 (rat, UniProt P42203 19-131, limits assumed); assay: as above
T5 construct: also called rt IL-13
T5 sequence (looked up): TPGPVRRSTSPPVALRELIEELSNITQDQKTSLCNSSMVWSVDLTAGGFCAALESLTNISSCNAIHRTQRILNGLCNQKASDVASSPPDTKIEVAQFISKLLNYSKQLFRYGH
Method: as §2

human IL-13 [7] = molecular target: T1, human IL-13; assay: cell-based or functional assay; remark: listed apart in the source
human IL-4 = molecular target: T6, human IL-4 (human, UniProt P05112 25-153); assay: cell-based or functional assay
T6 sequence (looked up): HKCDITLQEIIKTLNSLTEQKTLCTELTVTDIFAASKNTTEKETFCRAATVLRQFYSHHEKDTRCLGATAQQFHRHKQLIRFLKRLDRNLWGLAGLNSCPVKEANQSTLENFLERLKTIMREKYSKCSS

cynomolgus monkey IL-13 [8] = molecular target: T2, cynomolgus monkey IL-13; assay: cell-based or functional assay
cynomolgus monkey IL-13 [9] = molecular target: T2, cynomolgus monkey IL-13; assay: KinExA, fixed antigen
Method: (§3) Samples were prepared in PBS containing 0.1% sodium azide and 1.0 mg/ml BSA. The fixed antigen assay method was used to determine binding affinity. […] Each trispecific and IL-4 cytokine were equilibrated for at least 72 hours at room temperature, then passed through a flow cell containing Polymethylmethacrylate (PMMA) beads coated with anti-hIL-4 Ab-0002 (Pfizer) that contains the same IL-4 binding domain as the trispecifics. […] Data analysis was performed with KinExA Pro software version 4.3.11 (Sapidyne). […] The ‘drift correction’ fitting option was used when responses varied between replicate injections. Two curves were obtained in independent experiments and analyzed using the ‘n-curve analysis’ tool to obtain global best fit values for the KD and active concentration of IL-4 cytokine. The software reports each best fit value along with a 95% confidence interval.
(§4) Samples were prepared in PBS containing 0.1% sodium azide and 1.0 mg/ml BSA. A fixed antigen assay method was used to determine binding affinity.

cynomolgus monkey IL-4 = molecular target: T7, cynomolgus monkey IL-4 (cynomolgus monkey, UniProt P79339 25-153); assay: KinExA, fixed antigen
T7 construct: mature; also called cy IL-4; cyno IL-4
T7 sequence (looked up): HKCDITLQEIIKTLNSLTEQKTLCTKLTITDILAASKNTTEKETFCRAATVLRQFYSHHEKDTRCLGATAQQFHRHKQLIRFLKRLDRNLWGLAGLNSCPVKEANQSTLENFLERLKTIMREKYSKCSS
Method: as §3, §4

rat IL-4 = molecular target: T8, rat IL-4 (rat, UniProt P20096 25-147, limits assumed); assay: SPR (Biacore 8K+), trispecific captured on anti-human Fc on a CM5 chip, 200 nM IL-4 injected for 60 s
T8 construct: also called rt IL-4
T8 sequence (looked up): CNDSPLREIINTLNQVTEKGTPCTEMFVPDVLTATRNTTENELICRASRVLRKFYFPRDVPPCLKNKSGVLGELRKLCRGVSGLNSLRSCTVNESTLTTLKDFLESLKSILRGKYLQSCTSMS
Method: (§5) All experiments were performed using a Biacore 8K+instrument (GE HealthCare, Marlborough, MA). Anti-human Fc (Jackson Immunoresearch) or anti-mouse Fc (GE HealthCare, Marlborough, MA) was immobilized on a CM5 sensor chip using a standard amine coupling protocol provided by GE HealthCare. […] The association and dissociation phases were 60 seconds and 300 seconds, respectively. At the end of the dissociation phase, the surface containing anti-human or anti-mouse Fc was regenerated using one 30 second pulse of 3M MgCl₂ followed by one 30 second pulse of 10 mM glycine pH 1.7.

mouse IL-4 = molecular target: T9, mouse IL-4 (mouse, UniProt P07750 23-140); assay: as above
T9 construct: also called mu IL-4
T9 sequence (looked up): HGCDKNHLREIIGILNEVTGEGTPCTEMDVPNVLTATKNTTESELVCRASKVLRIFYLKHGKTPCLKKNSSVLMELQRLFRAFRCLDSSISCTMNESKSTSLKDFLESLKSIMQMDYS
Method: as §5

rat IL-33 = molecular target: T10, rat IL-33 (rat, UniProt Q66H70 109-264, limits assumed); assay: SPR (Biacore T-200, 37 C, buffer with 3 mM DTT), trispecific captured on Protein A/G on a CM5 chip, 200 nM IL-33 injected for 60 s (concentration from Example 75)
T10 construct: also called rat IL-33 WT
T10 sequence (looked up): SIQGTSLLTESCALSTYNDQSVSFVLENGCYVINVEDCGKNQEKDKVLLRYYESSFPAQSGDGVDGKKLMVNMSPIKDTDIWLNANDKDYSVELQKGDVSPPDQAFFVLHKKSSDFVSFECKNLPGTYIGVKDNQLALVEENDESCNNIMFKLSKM
Method: (§6) Experiments were done at 37° C. with a collection rate of 10 Hz using HBS-EP+ pH 7.4, containing 3 mM DTT as running and dilution buffer. […] An anti-rat and mouse positive control antibody M36 (Pfizer, L4295010-051) diluted to 10 μgs/mL was captured on flow cell 2 for 60 sec at 10 μLs/min. Flow cell 1 was used as a reference. Binding was evaluated by injecting 200 nM dilutions of each cytokine over all 4 flow cells for 60 sec at 50 μL/min followed by a 300 sec dissociation. The surface was regenerated with a single 60 sec injection of 10 mM Glycine pH 1.5 at 50 μL/min. The data was double referenced and an overlay of the resulting sensorgrams (FIG. 39) was prepared using Biacore T-200 Analysis Software version 3.2.

murine IL-33 = molecular target: T11, murine IL-33 (mouse, UniProt Q8BVZ5 109-266); assay: as above
T11 construct: also called mouse IL-33 WT
T11 sequence (looked up): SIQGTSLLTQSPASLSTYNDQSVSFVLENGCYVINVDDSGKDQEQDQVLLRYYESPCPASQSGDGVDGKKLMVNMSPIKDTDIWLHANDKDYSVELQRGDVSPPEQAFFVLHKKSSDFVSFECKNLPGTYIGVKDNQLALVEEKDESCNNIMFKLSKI
Method: as §6

T2 sequence (Q0PW92 entry or part of it limits assumed): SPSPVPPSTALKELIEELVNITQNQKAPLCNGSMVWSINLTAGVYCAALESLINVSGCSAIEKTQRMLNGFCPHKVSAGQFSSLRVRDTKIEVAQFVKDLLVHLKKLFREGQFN
T1 sequence (P35225 35-146 limits assumed, form in doubt): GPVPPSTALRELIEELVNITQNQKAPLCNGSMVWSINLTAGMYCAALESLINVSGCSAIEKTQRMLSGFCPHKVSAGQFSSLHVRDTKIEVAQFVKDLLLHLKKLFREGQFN

B1: IL13-0001 (antibody, human IgG1, kappa, V domains shown)
VH: EVQLVESGGGLVQPGGSLRLSCAASGFTFSSYAMSWVRQAPGKGLEWVASISSGDTTYYPDSVKGRFTISRDNAKNSLYLQMNSLRAEDTAVYYCARNEGYYFGLTLWGQGTLVTVSS
VL: DIQMTQSPSSLSASVGDRVTITCKASESVDHFGWSLVHWYQQKPGKAPKLLIYRASNLESGVPSRFSGSGSGTDFTLTISSLQPEDFATYYCQQSNEDPWTFGGGTKVEIKR
notes: also called IL13433-0001; 1RVHC9-VLA4
- Kd (human IL-13 [1]): 57.7 pM
- CD23: Fold versus IL13-0001 (human IL-13 [2]): 1 fold
- CD23 IC50 [pM] Ave. n = 2 (human IL-13 [2]): 6 pM
- binding result (cynomolgus monkey IL-13 [3]): binds
- binding result (dog IL-13): no binding
- binding result (mouse IL-13 [4]): no binding
- CD23: Fold bioactivity relative to IL13-0001 (human IL-13 [5]): 1 fold
- CD23: Fold bioactivity relative to IL13-1307 (human IL-13 [5]): 29.1 fold
- CD23 IC50 [pM] (human IL-13 [5]): 10.5 pM
- pSTAT6: Fold bioactivity relative to IL13-0001 (human IL-13 [5]): 1 fold
- pSTAT6: Fold bioactivity relative to IL13-1307 (human IL-13 [5]): 1.5 fold
- pSTAT6 IC50 [pM] (human IL-13 [5]): 92 pM

B2: IL13433-1258 (trispecific antibody)
heavy: EVQLVESGGGLVQPGGSLRLSCAASGFTFSSYWMYWVRQAPGKGLEWVAAITPNAGEDYYPESVKGRFTISRDNAKNSLYLQMNSLRAEDTAVYYCARGQYYYTKYSLGYWGQGTLVTVSSASTKGPSVFPLAPSSKSTSGGTAALGCLVKDYFPEPVTVSWNSGALTSGVHTFPAVLQSSGLYSLSSVVTVPSSSLGTQTYICNVNHKPSNTKVDKKVEPKSCRKTHTCPPCPAPEAAGAPSVFLFPPKPKDTLMISRTPEVTCVVVDVSHEDPEVKFNWYVDGVEVHNAKTKPREEQYNSTYRVVSVLTVLHQDWLNGKEYKCKVSNKALPAPIEKTISKAKGQPREPQVYTLPPSREEMTKNQVSLTCLVKGFYPSDIAVEWESNGQPENNYKTTPPVLDSDGSFFLYSRLTVDKSRWQQGNVFSCSVLHEALHSHYTQKSLSLSPGK
chain 1: DIQMTQSPSSLSASVGDRVTITCKASESVDHFGWSLVHWYQQKPGKAPKLLIYRASNLESGVPSRFSGSGSGTDFTLTISSLQPEDFATYYCQQSNEDPWTFGGGTKVEIKRTVAAPSVFIFPPSDEQLKSGTASVVCLLNNFYPREAKVQWKVDNALQSGNSQESVTEQDSKDSTYSLSSTLTLSKADYEKHKVYACEVTHQGLSSPVTKSFNRGECGGGGSEVTLRESGPALVKPTQTLTLTCTFSGFSLSNFGEGLSWIRQPPGKGLEWLAHIYWDDDKRYNPSLKSRLTISKDTSRNQVVLTMTNMDPVDTATYYCARRETVFYWYFDVWGQGTTVTVSSASTKGPSVFPLAPSSKSTSGGTAALGCLVKDYFPEPVTVSWNSGALTSGVHTFPAVLQSSGLYSLSSVVTVPSSSLGTQTYICNVNHKPSNTKVDKKVEPKSCEKTHTCPPCPAPEAAGAPSVFLFPPKPKDTLMISRTPEVTCVVVDVSHEDPEVKFNWYVDGVEVHNAKTKPREEQYNSTYRVVSVLTVLHQDWLNGKEYKCKVSNKALPAPIEKTISKAKGQPREPQVYTLPPSREEMTKNQVSLTCEVKGFYPSDIAVEWESNGQPENNYKTTPPVLDSDGSFFLYSKLTVDKSRWQQGNVFSCSVLHEALHSHYTQKSLSLSPGK
light 1: DIQMTQSPSSLSASVGDRVTITCRASQPIHNHLDWYQQKPGKAPKLLIYFGKNLQEGVPSRFSGSGSGTDFTLTISSLQPEDFATYYCFQYKKGWSFGGGTKVEIKRTVAAPSVFIFPPSDEQLKSGTASVVCLLNNFYPREAKVQWKVDNALQSGNSQESVTEQDSKDSTYSLSSTLTLSKADYEKHKVYACEVTHQGLSSPVTKSFNRGEC
light 2: DIQMTQSPSSLSASVGDRVTITCRASQSVDEEGDSYMNWYQQKPGKAPKLLIYAASNLESGVPSRFSGSGSGTDFTLTISSLQPEDFATYYCQQSNKDPPTFGGGTKVEIKRTVAAPSVFIFPPSDEQLKSGTASVVCLLNNFYPREAKVQWKVDNALQSGNSQESVTEQDSKDSTYSLSSTLTLSKADYEKHKVYACEVTHQGLSSPVTKSFNRGEC
chain 2: EVQLVESGGGLVQPGGSLRLSCAASGFTFSSYAMSWVRQAPGKGLEWVASISSGDTTYYPDSVKGRFTISRDNAKNSLYLQMNSLRAEDTAVYYCARNEGYYFGLTLWGQGTLVTVSSASTKGPSVFPLAPSSKSTSGGTAALGCLVKDYFPEPVTVSWNSGALTSGVHTFPAVLQSSGLYSLSSVVTVPSSSLGTQTYICNVNHKPSNTKVDKKVEPKSC
notes: Tri-Fab-Fc: SFab HC(3) IL-33, DFab LC(1)-HC(2) IL-13/IL-4, SFab LC(3), DFab LC(2), modified Fd(1); EE/RR, LS
- binding result (mouse IL-13 [6]): no binding (tested: 200 nM)
- binding result (rat IL-13): no binding (tested: 200 nM)
- fold IL-13 neutralization activity over dupilumab (monocyte CD23 bioassay) (human IL-13 [7]): 7.9 fold
- fold lower potency than IL13-0001 (monocyte CD23 bioassay) (human IL-13 [7]): ~2.7 fold
- fold IL-4 neutralization activity over dupilumab (monocyte CD23 bioassay) (human IL-4): ~10 fold
- fold lower potency than mAb IL4-1040 (monocyte CD23 bioassay) (human IL-4): ~3.1 fold
- fold reduced neutralization compared to the human cytokine (monocyte CD23 bioassay) (cynomolgus monkey IL-13 [8]): ~4.5 fold
- fold of the human IL-13 affinity value (cynomolgus monkey IL-13 [9]): ≤ 2 fold
- fold weaker than the human IL-4 affinity value (cynomolgus monkey IL-4): ~6.2 fold
- binding result (rat IL-4): no binding (tested: 200 nM)
- binding result (mouse IL-4): no binding (tested: 200 nM)
- binding result (rat IL-33): no binding (tested: 200 nM)
- binding result (murine IL-33): no binding (tested: 200 nM)

Reference: patent US20240117030A1 (Pfizer, published 2024)
